Reference: article PMC2883946

Legend:
[1] = target: 14-3-3β (UniProt Q9CQV8); experiment: FLAG IP, 14-3-3 isoform immunoblot; details: reference: FLAG-AS160 wild type; sites S318,T568,S588,T642,S751
[2] = target: 14-3-3ε (UniProt P62259); experiment: FLAG IP, 14-3-3 isoform immunoblot; details: reference: FLAG-AS160 wild type; sites S318,T568,S588,T642,S751

binding against the reference [1]: weaker | binding against the reference [2]: weaker
Substance: FLAG-AS160 (from UniProt O60343) FLAG-AS160 5P
